Patent publication US20030032157A1, “Polypeptides interactive with Bcl-XL” (priority 2001, published 2003)
One block for each molecule: values may come before it.

Columns and labels:
[1] = target: T1, Bcl-XL-GST fusion protein (Homo sapiens, UniProt Q07817); assay: Free purified polypeptide binding to Bcl-XL-GST fusion protein (additional selection, FIG. 9); conditions: purified free polypeptides
T1 construct: made in house; host or cells: E. coli BL21 (DE3) pLysS
Description: (§1) Detection of a polypeptide binding to a Bcl-XL-glutathione S-transferase (GST) fusion protein was carried out as follows. Twenty microliters of glutathione Sepharose 4B slurry (AP Biotech) was aliquoted to a microcentrifuge tube and washed with PBS. The Bcl-XL-GST fusion protein (60 μg), prepared as describe above, was added and allowed to bind to the Sepharose beads for 1 hr at 4° C. The beads were then re-washed in selection buffer (50 mM Tris-HCL pH 7.5, 150 mM KCl, 0.05% Triton X-100, 0.5 mg/ml BSA, and 0.1 mg/ml salmon sperm DNA). The Bcl-XL-GST beads were resuspended in 100 μl of selection buffer (approximately 11.5 μM Bcl-XL) and ^35S-labeled mRNA display construct or free peptide was added (approximately 10-60 nM) and incubated on a rotator for 1 hr at 4° C. The reaction was then transferred to a microcentrifuge column (BioRad) and unbound mRNA display constructs or free peptides were removed by a 10 sec spin at 1,000 rpm. The Sepharose beads were then washed three times with 500 μl of selection buffer. The extent of binding between the Bcl-XL-GST fusion protein and the mRNA display constructs or free peptides was determined by scintillation counting each fraction, including the recovered beads. […]

[2] = target: T2, human Bcl-XL protein produced as a GST fusion (Homo sapiens, UniProt Q07817); assay: Binding of mRNA display constructs to Bcl-XL-GST fusion protein immobilized on glutathione Sepharose beads (scintillation counting); conditions: BH3 domain or control peptides as individual mRNA display constructs, 1 hr 4° C.
T2 construct: made in house; host or cells: E. coli BL21 (DE3) pLysS
T2 sequence (Q07817 1-211): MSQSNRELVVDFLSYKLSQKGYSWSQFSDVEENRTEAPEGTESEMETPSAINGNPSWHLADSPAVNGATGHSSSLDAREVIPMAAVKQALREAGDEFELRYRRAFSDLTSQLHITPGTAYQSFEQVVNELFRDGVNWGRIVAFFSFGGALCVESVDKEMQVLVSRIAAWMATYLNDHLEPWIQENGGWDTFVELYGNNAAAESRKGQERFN
Description: Detection of a polypeptide binding to a Bcl-XL-glutathione S-transferase (GST) fusion protein was carried out as follows. Twenty microliters of glutathione Sepharose 4B slurry (AP Biotech) was aliquoted to a microcentrifuge tube and washed with PBS. The Bcl-XL-GST fusion protein (60 μg), prepared as describe above, was added and allowed to bind to the Sepharose beads for 1 hr at 4° C. The beads were then re-washed in selection buffer (50 mM Tris-HCL pH 7.5, 150 mM KCl, 0.05% Triton X-100, 0.5 mg/ml BSA, and 0.1 mg/ml salmon sperm DNA). […] The extent of binding between the Bcl-XL-GST fusion protein and the mRNA display constructs or free peptides was determined by scintillation counting each fraction, including the recovered beads.
Members of the Bcl-2 family of apoptotic proteins function via homo- and heterodimerization, occurring primarily through the binding of a single α-helix designated the BH3 domain (Bcl-2 Homology domain 3) in a corresponding pocket produced by three α-helices in the interacting partner (Diaz et al., J. Biol. Chem. 272:11350-11355, 1997; and Sattler et al., Science 275:983-986, 1997). […] The amount of peptide bound to the beads was determined by scintillation counting and graphed as the percent of input counts bound (FIG. 2B).

[3] = target: human Bcl-XL-GST fusion protein (human) [GST: P08515]; assay: purified labeled free peptide on immobilized Bcl-XL-GST
human Bcl-XL-GST fusion protein (human) [GST: P08515], sequence (P08515 1-218, tags or fused parts left off): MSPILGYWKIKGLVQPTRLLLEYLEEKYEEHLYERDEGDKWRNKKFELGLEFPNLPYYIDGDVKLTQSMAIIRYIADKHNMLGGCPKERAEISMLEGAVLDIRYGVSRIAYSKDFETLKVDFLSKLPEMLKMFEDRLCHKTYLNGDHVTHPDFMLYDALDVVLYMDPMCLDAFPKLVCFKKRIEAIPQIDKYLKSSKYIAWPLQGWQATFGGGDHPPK

[4] = target: T3, human Bcl-XL-GST fusion protein (human, UniProt P08515 1-218 = GST; Q07817 1-211); assay: labeled free peptide on immobilized Bcl-XL-GST with Bak BH3 competitor
T3 construct: Made in E. coli, immobilized on glutathione Sepharose beads; whole entry named; also called Bcl-XL-glutathione S-transferase (GST) fusion protein; GST-BCL-XL
T3 sequence (P08515 1-218, tags or fused parts left off): as above
Description: Only three of the selected proteins (Bim, Bak, and Bax) were previously known to contain a BH3 domain. In order to determine if the other proteins bound to the BH3 domain binding site on Bcl-XL, a competition assay was performed. The Bak BH3 domain peptide used as a positive control was prepared by chemical synthesis and used to compete with individual Bcl-XL-binding polypeptides in a Bcl-XL binding assay. […] At a fixed concentration of immobilized Bcl-XL, the Bak BH3 domain-containing peptide […] (SEQ ID NO: 152), also containing a FLAG-M2 epitope, was added at the indicated concentration along with a trace amount of a selected Talin fragment. After binding for 1 hour, the unbound material was removed and the bound protein was quantitated. The bound protein was assayed by scintillation counting, normalized to that bound in the absence of competitor, and plotted versus competitor concentration.
A competition assay was performed for each of the selected Bcl-XL-binding polypeptides using 20 μM Bak BH3 competitor based on the titration shown in FIG. 6.

[5] = target: T3, human Bcl-XL-GST fusion protein; assay: labeled free peptide on Bcl-XL-GST beads, immobilized target varied from 11 nM to 28 µM
Description: Detection of a polypeptide binding to a Bcl-XL-glutathione S-transferase (GST) fusion protein was carried out as follows. Twenty microliters of glutathione Sepharose 4B slurry (AP Biotech) was aliquoted to a microcentrifuge tube and washed with PBS. The Bcl-XL-GST fusion protein (60 μg), prepared as describe above, was added and allowed to bind to the Sepharose beads for 1 hr at 4° C. The beads were then re-washed in selection buffer (50 mM Tris-HCL pH 7.5, 150 mM KCl, 0.05% Triton X-100, 0.5 mg/ml BSA, and 0.1 mg/ml salmon sperm DNA). The Bcl-XL-GST beads were resuspended in 100 μl of selection buffer (approximately 11.5 μM Bcl-XL) and ³⁵S-labeled mRNA display construct or free peptide was added (approximately 10-60 nM) and incubated on a rotator for 1 hr at 4° C. […] The extent of binding between the Bcl-XL-GST fusion protein and the mRNA display constructs or free peptides was determined by scintillation counting each fraction, including the recovered beads.
Purified radioactively labeled protein from the individual clones was incubated with immobilized Bcl-XL-GST for one hour and, after washing, the amount bound was determined by scintillation counting. […] The amount of peptide bound to Bcl-XL was determined by scintillation counting and normalized to that bound at the highest concentration. […]

[6] = target: T3, human Bcl-XL-GST fusion protein; assay: 35S-labeled mRNA display construct on Bcl-XL-GST glutathione Sepharose beads, scintillation counting
Description: as §1, with “³⁵S-labeled” for “^35S-labeled”

T1 sequence (Q07817 1-211): as the sequence (Q07817 1-211) above

Molecule: Bax (clone AttB-Hc-7) (from UniProt Q07812 40-95) (peptide)
percent bound [3]: 32%

B1: clone t53 (peptide)
chain: LDPVKDVLILSALRRMLWAADDFLEDLPFEQIG
notes: mRNA display clone from a known polypeptide
binding result [4]: binds

B3: BH3 domain of Bcl-2, mRNA display construct (peptide, UniProt P10415 91-106, looked up)
peptide: PVVHLTLRQAGDDFSR
notes: domain: BH3 domain; Peptide fused to its mRNA through puromycin; also called BH3 helix from Bcl-2
binding result [6]: no binding

Second part, the molecule after the results:

Binding to the Bcl-XL-GST fusion protein [1]: 6%
Molecule: Bmf: selected Bmf polypeptide of the additional selection, purified free polypeptide (KAEVQIARKLQCIADQFHRLHVL)

percent of input counts bound to Bcl-XL-GST [2]: no binding was observed
Molecule: Bcl-2: BH3 domain of Bcl-2 prepared as mRNA display construct (FIG. 2A) (PVVHLTLRQAGDDFSR)

binding result [5]: binds
B2: Bak BH3 domain-containing peptide MGQVGRQLAIIGDDINRDYKDDDDKASA (peptide)
peptide: MGQVGRQLAIIGDDINRDYKDDDDKASA
notes: Chemically synthesized free peptide; also called selected Bak fragment
